Patent US20250277029A1 (Amgen, published 2025)

Assays:
[1] = molecular target: human CB1 on stably transfected CB1 CHO cells (human, UniProt P21554 1-472); experiment: cell-based or functional assay
[2] = molecular target: T1, GFP-fused huCB1-SMALP (human CB1 in styrene maleic acid lipoparticles) (human, UniProt P21554 1-472); experiment: flow cytometry, yeast-displayed IgG, GFP MFI
T1 construct: Prepared as in Luna V. et al. 2018; also called huCB1-GFP-SMALP; wtCB1-SMALP; not shown: GFP fusion

[3] = molecular target: T2, His-tagged huCB1-ND (human CB1 in nanodisc) (human); experiment: flow cytometry, yeast-displayed IgG, binding/display ratio
T2 construct: CB1 construct of Cell 167(3) (2016) 750-762 expressed in Sf9 cells; POPC:MSP1D1:CB1 480:8:1; also called CB1-nanodisc; huCB1-Nanodisc; not shown: histidine purification tag

[4] = molecular target: T3, empty-ND (nanodisc without CB1); experiment: as above
T3 construct: its only protein is the nanodisc scaffold; also called Empty Nanodisc

[5] = molecular target: T1, GFP-fused huCB1-SMALP (human CB1 in …); experiment: flow cytometry, yeast-displayed IgG, GFP MFI; remark: listed apart in the source
[6] = molecular target: T2, His-tagged huCB1-ND (human CB1 in …); experiment: flow cytometry, yeast-displayed IgG, binding/display ratio; remark: listed apart in the source
[7] = molecular target: T2, His-tagged huCB1-ND (human CB1 in …); experiment: flow cytometry, yeast-displayed IgG, huCB1-ND over empty-ND

T2 sequence (P21554 99-414): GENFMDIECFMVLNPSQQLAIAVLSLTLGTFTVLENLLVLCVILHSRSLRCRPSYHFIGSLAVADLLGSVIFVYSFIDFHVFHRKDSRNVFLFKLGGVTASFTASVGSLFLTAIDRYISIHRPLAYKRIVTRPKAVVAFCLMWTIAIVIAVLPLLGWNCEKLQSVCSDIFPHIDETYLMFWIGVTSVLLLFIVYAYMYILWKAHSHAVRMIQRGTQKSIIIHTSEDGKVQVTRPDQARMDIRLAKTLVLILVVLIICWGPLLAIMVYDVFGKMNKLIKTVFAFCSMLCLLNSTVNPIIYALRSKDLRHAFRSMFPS
Chain of human CB1 on stably transfected CB1 CHO cells (P21554 whole entry, the tested form may be a part): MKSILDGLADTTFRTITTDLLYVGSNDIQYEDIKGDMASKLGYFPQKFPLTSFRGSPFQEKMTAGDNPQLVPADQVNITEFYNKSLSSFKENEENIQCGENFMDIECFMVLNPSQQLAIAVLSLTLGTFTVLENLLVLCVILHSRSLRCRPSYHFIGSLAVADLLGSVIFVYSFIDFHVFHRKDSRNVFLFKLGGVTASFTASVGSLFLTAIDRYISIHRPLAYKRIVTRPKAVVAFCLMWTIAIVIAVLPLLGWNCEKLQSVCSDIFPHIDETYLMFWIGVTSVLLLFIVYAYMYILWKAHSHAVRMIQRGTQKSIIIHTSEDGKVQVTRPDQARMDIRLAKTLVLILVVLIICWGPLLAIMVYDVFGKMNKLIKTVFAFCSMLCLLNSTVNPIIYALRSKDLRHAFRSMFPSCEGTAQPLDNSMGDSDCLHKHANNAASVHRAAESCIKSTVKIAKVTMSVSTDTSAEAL
T1 sequence (P21554 whole entry, the tested form may be a part): as above

Row | Binder | 100 nM huCB1-SMALP binding (normalized to 10D10) [5] [fold] | relative binding to 0.2 nM huCB1-ND (relative to 10D10N35Y) [6] [fold] | specific huCB1 binding (CB1 ND/Empty ND ratio) [7] [ratio] | also measured
1 | LIBC528116-1 + VK1 germline fix(es) (IgG1 SEFL2 mAb) (antibody, V domains shown) VH: QVQLQESGPGLVKPSQTLSLTCTVSGGSIRRGGDYWAWIRQHPGKGLEWIGHVYYTGSTNYNPRFKDRATISVNTYKNQFSLKLSSVTAADTAVYYCARNYDTVTGYSYYYYGMDVWGQGTTVTVSS VL: DIQLTQSPSTLSASVGDRVTITCRASQSISNYLNWYQQKPGKAPKLLIYAASSLHSGVPSRFSGSGSGTDFTLTISSLQPEDFASYYCQQYQSYPLTFGQGTKVEIKR | – | – | – | IC50 (nM, n = 4), antagonist activity, TR-FRET cAMP assay [1]: 2.02 nM
2 | LIBC528148-1 (antibody, V domains shown) VH: QVQLQESGPGLVKPSQTLSLTCTVSGGSIRRGGDYWSWIRQHPGKGLEWIGHIYQSGQTKYNPKLKGRATISVDTYKNQFSLKLSSVTAADTAVYYCARDYDILTGYSYYYYGMDVWGQGTTVTVSS VL: DIQLTQSPSTLSASVGDRVTITCRASQSISNYLNWYQQKPGKAPKLLIYAASSLHSGVPSRFSGSGSGTDFTLTISSLQPEDFASYYCQQYQSYPLTFGQGTKVEIKR | – | – | – | 100 nM huCB1-GFP-SMALP binding (normalized to 10D10N35Y) [2]: 3.38 fold
3 | LIBC527869-1 (antibody, V domains shown, also called LIBC527869-1 + VK1 germline fix(es)) VH: QVQLQESGPGLVKPSQTLSLTCTVSGGNIRRGGDYWAWIRQHPGKGLEWIGHIYHTGKTNYNPSFKGRATISVKTYKNQFSLKLSSVTAADTAVYYCARNYDTLSGNSYYYYGMDVWGQGTTVTVSS VL: DIQLTQSPSTLSASVGDRVTITCRASQSISNYLNWYQQKPGKAPKLLIYAASSLHSGVPSRFSGSGSGTDFTLTISSLQPEDFASYYCQQYQSYPLTFGQGTKVEIKR | – | – | – | 100 nM huCB1-GFP-SMALP binding (normalized to 10D10N35Y) [2]: 3.61 fold; 0.200 nM huCB1-Nanodisc binding (relative to 10D10N35Y) [3]: 4.15 fold; 50.0 nM Empty Nanodisc binding (relative to 10D10N35Y) [4]: 0.97 fold
4 | LIBC527827-1 (antibody, V domains shown, also called LIBC527827-1 + VK1 germline fix(es)) VH: QVQLQESGPGLVKPSQTLSLTCTVSGGSIRRGGDYWGWIRQHPGKGLEWIGHVYQSGQTAYNPKFENRATISVKTYKNQFSLKLSSVTAADTAVYYCARNYDTLTGHSYYYYGMDVWGQGTTVTVSS VL: DIQMTQSPSTLSASVGDRVTITCRASQSISNYLNWYQQKPGKAPKLLIYAASSLHSGVPSRFSGSGSGTDFTLTISSLQPEDFASYYCQQYQSYPLTFGQGTKVEIKR | – | – | – | 100 nM huCB1-GFP-SMALP binding (normalized to 10D10N35Y) [2]: 4.99 fold; 0.200 nM huCB1-Nanodisc binding (relative to 10D10N35Y) [3]: 4.31 fold; 50.0 nM Empty Nanodisc binding (relative to 10D10N35Y) [4]: 1.16 fold
5 | 10D10 (antibody, V domains shown) VH: QVQLQESGPGLVKPSQTLSLTCTVSGGSIRRGGDYWSWIRQHPGKGLEWIGYIYYSGSTNYNPSLKSRATISVDTSKNQFSLKLSSVTAADTAVYYCARDYDILTGYSYYYYGMDVWGQGTTVTVSS VL: not shown | – | – | – | IC50 (nM, n = 4), antagonist activity, TR-FRET cAMP assay [1]: 347 nM
6 | LIBC674229-1 (IgG1 SEFL2 mAb) (antibody, V domains shown) VH: QVQLQESGPGLVKPSQTLSLTCTVSGGSIRRGGDYWSWIRQHPGKGLEWIGHIYQTGQTKYNPSFKGRVRISVNTYKNQFSLKLSSVTAADTAVYYCARGYDVSGYSYYYYGMDVWGQGTTVTVSS VL: DIVMTQSPLSLPVTPGEPASISCRSSQSLLHRSGYNYLDWYLQKPGQSPQLLIYQGSNRASGVPDRFSGSGSGTDFTLKISRVEAEDVGVYYCMQSLQTPRTFGQGTKVEIKR | – | – | – | IC50 (nM, n = 4), antagonist activity, TR-FRET cAMP assay [1]: 4.16 nM
7 | LIBC523596-1 (antibody, V domains shown) VH: QVQLQESGPGLVKPSQTLSLTCTVSGGSIRRGGDYWSWIRQHPGKGLEWIGHVYQSGQTAYNPNFEDRATISVNTYKNQFSLKLSSVTAADTAVYYCAREYDVVSGYSYYYYGMDVWGQGTTVTVSS VL: DIVMTQSPLSLPVTPGEPASISCRSSQSLLTSSGYNYVDWYLQKPGQSPQLLIYQGSNRASGVPDRFSGSGSGTDFTLKISRVEAEDVGVYYCMQAVKIPRTFGQGTKVEIKR | 4.19 | – | – | –
8 | LIBC523603-1 (antibody, V domains shown) VH: QVQLQESGPGLVKPSQTLSLTCTVSGGSIRRGGDYWAWIRQHPGKGLEWIGHVYQSGQTAYNPNFENRATISVNTYKNQFSLKLSSVTAADTAVYYCARDYDAVSGYSYYYYGMDVWGQGTTVTVSS VL: DIVMTQSPLSLPVTPGEPASISCRSSQSLLSSYGNNYVDWYLQKPGQSPQLLIYQGSNRASGVPDRFSGSGSGTDFTLKISRVEAEDVGVYYCRQAVGLPRTFGQGTKVEIKR | 4.05 | 6.05 | 19.4 | –
9 | LIBC523844-1 (antibody, V domains shown) VH: QVQLQESGPGLVKPSQTLSLTCTVSGGSIRRGGDYWSWIRQHPGKGLEWIGHVYYTGSTKYNPSFKDRATISVNTYKNQFSLKLSSVTAADTAVYYCARDYDILTGYSYYYYGMDVWGQGTTVTVSS VL: DIVMTQSPLSLPVTPGEPASISCRSSQSLLSSSGANYVDWYLQKPGQSPQLLIYQGSNRASGVPDRFSGSGSGTDFTLKISRVEAEDVGVYYCRQARALPRTFGQGTKVEIKR | 6.69 | 3.78 | 8.58 | –
10 | LIBC523670-1 (antibody, V domains shown, also called LIBC523670-1 + VK2 germline fix) VH: QVQLQESGPGLVKPSQTLSLTCTVSGGSIRRGGDYWAWIRQHPGKGLEWIGHVYQTGQTAYNPNLESRATISVNTYKNQFSLKLSSVTAADTAVYYCARNYDVLSGYSYYYYGMDVWGQGTTVTVSS VL: DIVMTQSPLSLPVTPGEPASISCRSSQSLLTSYGANYLDWYLQKPGQSPQLLIYQGSNRASGVPDRFSGSGSGTDFTLKISRVEAEDVGVYYCMQALQIPRTFGQGTKVEIKR | 5.42 | 7.46 | 23 | –
11 | LIBC523857-1 (antibody, V domains shown) VH: QVQLQESGPGLVKPSQTLSLTCTVSGGSIRRGGDYWSWIRQHPGKGLEWIGHIYQTGQTAYNPRLEGRATISVNTYKNQFSLKLSSVTAADTAVYYCARDYDILTGYSYYYYGMDVWGQGTTVTVSS VL: DIVMTQSPLSLPVTPGEPASISCRSSQSLLSSTGANYLDWYLQKPGQSPQLLIYLGSNRASGVPDRFSGSGSGTDFTLKISRVEAEDVGVYYCRQAVELPRTFGQGTKVEIKR | 4.71 | 4.05 | 13.9 | –
12 | LIBC523815-1 (antibody, V domains shown) VH: QVQLQESGPGLVKPSQTLSLTCTVSGGSIRRGGDYWSWIRQHPGKGLEWIGHIYQSGQTKYNPSLKDRATISVNTYKNQFSLKLSSVTAADTAVYYCARDYDILTGYSYYYYGMDVWGQGTTVTVSS VL: DIVMTQSPLSLPVTPGEPASISCRSSQSLLTSSGANYVDWYLQKPGQSPQLLIYLGSNRASGVPDRFSGSGSGTDFTLKISRVEAEDVGVYYCRQAREQPRTFGQGTKVEIKR | 4.55 | 6.15 | 14.8 | –
13 | LIBC523813-1 (antibody, V domains shown, also called LIBC523813-1 + VK2 germline fix) VH: QVQLQESGPGLVKPSQTLSLTCTVSGGSIRRGGDYWSWIRQHPGKGLEWIGHVYYTGQTAYNPKFKDRATISVKTYKNQFSLKLSSVTAADTAVYYCARDYDILTGYSYYYYGMDVWGQGTTVTVSS VL: DIVMTQSPLSLPVTPGEPASISCRSSQSLLSSSGANYVDWYLQKPGQSPQLLIYLGSNRASGVPDRFSGSGSGTDFTLKISRVEAEDVGVYYCMQARGIPRTFGQGTKVEIKR | 6.32 | 3.38 | 5.79 | –
14 | LIBC523862-1 (antibody, V domains shown) VH: QVQLQESGPGLVKPSQTLSLTCTVSGGSIRRGGDYWSWIRQHPGKGLEWIGHIYQTGSTAYNPSLKGRATISVNTYKNQFSLKLSSVTAADTAVYYCARDYDILTGYSYYYYGMDVWGQGTTVTVSS VL: DIVMTQSPLSLPVTPGEPASISCRSSQSLLHSTGANYVDWYLQKPGQSPQLLIYLGSNRASGVPDRFSGSGSGTDFTLKISRVEAEDVGVYYCRQAIALPRTFGQGTKVEIKR | 3.97 | 5.07 | 13.6 | –
15 | LIBC523748-1 (antibody, V domains shown) VH: QVQLQESGPGLVKPSQTLSLTCTVSGGSIRRGGDYWSWIRQHPGKGLEWIGHVYYTGSTKYNPSFEGRATISVKTYKNQFSLKLSSVTAADTAVYYCARDYDILTGYSYYYYGMDVWGQGTTVTVSS VL: not shown | 6.12 | 4.41 | 5.33 | –
16 | LIBC523868-1 (antibody, V domains shown) VH: QVQLQESGPGLVKPSQTLSLTCTVSGGSIRRGGDYWSWIRQHPGKGLEWIGHVYYEGSTAYNPSFEDRATISVNTYKNQFSLKLSSVTAADTAVYYCARDYDILTGYSYYYYGMDVWGQGTTVTVSS VL: DIVMTQSPLSLPVTPGEPASISCRSSQSLLTSYGINYVDWYLQKPGQSPQLLIYLGSNRASGVPDRFSGSGSGTDFTLKISRVEAEDVGVYYCMQARQIPRTFGQGTKVEIKR | 4.21 | 6.28 | 13.3 | –
17 | LIBC523760-1 (antibody, V domains shown) VH: QVQLQESGPGLVKPSQTLSLTCTVSGGSIRRGGDYWSWIRQHPGKGLEWIGHVYQTGSTKYNPKFKGRATISVNTYKNQFSLKLSSVTAADTAVYYCARDYDILTGYSYYYYGMDVWGQGTTVTVSS VL: DIVMTQSPLSLPVTPGEPASISCRSSQSLLTSSGANYVDWYLQKPGQSPQLLIYLGSNRASGVPDRFSGSGSGTDFTLKISRVEAEDVGVYYCRQAVGTPRTFGQGTKVEIKR | 5.7 | 4.19 | 7.21 | –
